Consider three molecules from paper PMC7824274, “Separation of Coiled-Coil Structures in Lamin A/C Is Required for the Elongation of the Filament” (Cells, 2020).

B1: lamin A/C 250-400 fragment, wild type, tag-free (domain or fragment, human, UniProt P02545 250-400, looked up)
chain: AQHEDQVEQYKKELEKTYSAKLDNARQSAERNSNLVGAAHEELQQSRIRIDSLSAQLSQLQKQLAAKEAKLRDLEDSLARERDTSRRLLAEKEREMAEMRARMQQQLDEYQELLDIKLALDMEIHAYRKLLEGEEERLRLSPSPTSQRSRG
notes: lamin A/C, human, residues 250-400 (C-terminal part of coil 2); His-tag cleaved with TEV protease; also called lamin 250-400; coil 2 fragment; source: E. coli BL21 (DE3), purified (cobalt-Talon, TEV cleavage, HiTrap Q, SEC); not shown: His-tag, N-terminal, cleaved

Test [1] concerns the target T1, His-tagged lamin A/C 1-300 fragment, wild type (human, UniProt P02545 1-300).
T1 construct: lamin A/C, human, residues 1-300 (N-terminal head, coil 1a, L1, coil 1b and following residues); pProEx-HTa vector: a TEV protease cleavage site stands between the His-tag and the lamin residues; also called lamin 300 fragment; His-lamin 1-300 WT; source: E. coli BL21 (DE3), purified (cobalt-Talon, HiTrap Q, SEC); not shown: His-tag, N-terminal, kept
T1 sequence (looked up): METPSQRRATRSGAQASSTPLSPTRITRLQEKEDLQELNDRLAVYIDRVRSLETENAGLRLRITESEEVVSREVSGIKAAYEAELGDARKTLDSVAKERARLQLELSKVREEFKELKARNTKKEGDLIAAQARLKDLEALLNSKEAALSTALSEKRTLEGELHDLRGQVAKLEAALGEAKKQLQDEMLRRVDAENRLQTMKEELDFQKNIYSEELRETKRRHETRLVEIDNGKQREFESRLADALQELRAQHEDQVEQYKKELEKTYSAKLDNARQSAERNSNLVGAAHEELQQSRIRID
Briefly: pull-down; His-tagged lamin 1-300 variants on Ni-NTA resin as bait, tag-free lamin 250-400 as prey; 20 mM Tris-HCl pH 8.0 with 50 mM or 150 mM NaCl; room temperature 30 min; SDS-PAGE. The note with it: both partners purified.

Test [2] addresses T2, His-tagged lamin A/C 1-300 fragment, L35V (human, UniProt P02545 1-300, L35V).
T2 construct: lamin A/C, human, residues 1-300 with the EDMD mutation L35V; pProEx-HTa vector: a TEV protease cleavage site stands between the His-tag and the lamin residues; also called His-lamin 1-300 L35V; lamin 300 L35V; source: E. coli BL21 (DE3), purified (cobalt-Talon, HiTrap Q, SEC); not shown: His-tag, N-terminal, kept
T2 sequence (looked up): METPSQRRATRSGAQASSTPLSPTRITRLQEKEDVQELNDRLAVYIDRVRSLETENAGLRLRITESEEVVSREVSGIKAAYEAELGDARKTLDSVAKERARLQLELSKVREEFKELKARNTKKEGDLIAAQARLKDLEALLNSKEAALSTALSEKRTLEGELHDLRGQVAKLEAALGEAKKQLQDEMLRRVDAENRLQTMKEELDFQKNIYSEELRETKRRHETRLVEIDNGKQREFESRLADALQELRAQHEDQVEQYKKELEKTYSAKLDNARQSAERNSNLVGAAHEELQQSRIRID
Briefly: ITC; His-tagged lamin 300 fragments in the cell (25 uM), TEV-cleaved lamin 250-400 in the syringe (180 uM); PBS; 25 °C; 19 injections of 2 uL. The note with it: both partners purified.

For test [3], the target named is T3, His-tagged lamin A/C 1-300 fragment, L59R (human, UniProt P02545 1-300, L59R).
T3 construct: lamin A/C, human, residues 1-300 with the CDM1A mutation L59R; pProEx-HTa vector: a TEV protease cleavage site stands between the His-tag and the lamin residues; also called His-lamin 1-300 L59R; lamin 300 L59R; source: E. coli BL21 (DE3), purified (cobalt-Talon, HiTrap Q, SEC); not shown: His-tag, N-terminal, kept
T3 sequence (looked up): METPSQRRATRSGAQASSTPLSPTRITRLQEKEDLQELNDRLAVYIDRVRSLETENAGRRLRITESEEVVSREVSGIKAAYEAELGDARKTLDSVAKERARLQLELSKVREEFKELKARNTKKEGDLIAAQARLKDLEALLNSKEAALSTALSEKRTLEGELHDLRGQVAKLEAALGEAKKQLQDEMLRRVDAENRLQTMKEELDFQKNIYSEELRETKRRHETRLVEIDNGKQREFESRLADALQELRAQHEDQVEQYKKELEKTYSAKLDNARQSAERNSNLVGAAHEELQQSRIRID
The test is described as above. The note with it: both partners purified.

Test [4] has as its target T4, His-tagged lamin A/C 1-300 fragment, I63S (human, UniProt P02545 1-300, I63S).
T4 construct: lamin A/C, human, residues 1-300 with the EDMD mutation I63S; pProEx-HTa vector: a TEV protease cleavage site stands between the His-tag and the lamin residues; also called His-lamin 1-300 I63S; lamin 300 I63S; source: E. coli BL21 (DE3), purified (cobalt-Talon, HiTrap Q, SEC); not shown: His-tag, N-terminal, kept
T4 sequence (looked up): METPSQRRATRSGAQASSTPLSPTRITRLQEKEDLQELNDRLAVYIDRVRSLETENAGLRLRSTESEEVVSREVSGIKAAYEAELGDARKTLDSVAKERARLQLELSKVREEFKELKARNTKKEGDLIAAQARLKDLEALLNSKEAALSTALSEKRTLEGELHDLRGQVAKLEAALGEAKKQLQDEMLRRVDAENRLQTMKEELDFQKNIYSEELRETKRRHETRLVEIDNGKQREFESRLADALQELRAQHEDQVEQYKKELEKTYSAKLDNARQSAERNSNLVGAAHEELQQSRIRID
The description is as above. The settings on record: both partners purified.

The target in test [5] is T5, His-tagged lamin A/C 1-300 fragment, Y45C (human), P02545.
T5 chain: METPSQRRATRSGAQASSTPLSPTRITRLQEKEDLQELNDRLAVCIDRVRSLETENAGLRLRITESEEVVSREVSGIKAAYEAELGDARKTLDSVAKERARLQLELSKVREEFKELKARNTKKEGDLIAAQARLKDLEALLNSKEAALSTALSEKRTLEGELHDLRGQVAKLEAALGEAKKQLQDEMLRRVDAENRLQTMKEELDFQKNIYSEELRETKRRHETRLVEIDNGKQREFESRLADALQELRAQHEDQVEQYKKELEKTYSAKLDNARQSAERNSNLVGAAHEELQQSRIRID
The test is described as above. The note with it: remark: other sources report otherwise.

In test [6] the target is B1. Briefly: pull-down; His-tagged lamin 1-125 (wild type or L38C, L42C) on Ni-NTA resin, lamin 250-400 fragments (wild type or cysteine mutants) as prey; oxidized (0.5 mM GSSG) and reducing (5 mM TCEP) conditions; SDS-PAGE. The settings on record: both partners purified.
Test [7] addresses T6, lamin A/C 250-400 fragment, K316C (human, UniProt P02545 250-400, K316C).
T6 construct: lamin A/C, human, residues 250-400 with K316C; the methods say that preys were His-tag cleaved; also called lamin 250-400 K316C; source: E. coli BL21 (DE3), purified (cobalt-Talon, TEV cleavage, HiTrap Q, SEC); not shown: His-tag, N-terminal, cleaved
T6 sequence (looked up): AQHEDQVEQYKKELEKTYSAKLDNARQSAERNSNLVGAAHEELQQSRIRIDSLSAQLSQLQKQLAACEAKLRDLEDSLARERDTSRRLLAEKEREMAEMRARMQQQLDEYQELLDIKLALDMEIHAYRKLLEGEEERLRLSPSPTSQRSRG
The description is as above. The settings on record: both partners purified.

Test [8] has as its target T7, lamin A/C 250-400 fragment, Y267C (human, UniProt P02545 250-400, Y267C).
T7 construct: lamin A/C, human, residues 250-400 with Y267C; the methods say that preys were His-tag cleaved; also called lamin 250-400 Y267C; source: E. coli BL21 (DE3), purified (cobalt-Talon, TEV cleavage, HiTrap Q, SEC); not shown: His-tag, N-terminal, cleaved
T7 sequence (looked up): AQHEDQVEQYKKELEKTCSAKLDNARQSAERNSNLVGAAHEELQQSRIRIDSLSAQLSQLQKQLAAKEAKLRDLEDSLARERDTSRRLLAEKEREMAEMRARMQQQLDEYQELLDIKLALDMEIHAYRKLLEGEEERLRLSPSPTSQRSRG
Described as above. The settings on record: both partners purified.

The target of test [9] is T8, His-tagged lamin A/C 250-400 fragment, L362C (human, UniProt P02545 250-400, L362C).
T8 construct: lamin A/C, human, residues 250-400 with L362C; also called His-lamin 250-400 L362C; source: E. coli BL21 (DE3), purified (cobalt-Talon, HiTrap Q, SEC); not shown: His-tag, N-terminal, kept
T8 sequence (looked up): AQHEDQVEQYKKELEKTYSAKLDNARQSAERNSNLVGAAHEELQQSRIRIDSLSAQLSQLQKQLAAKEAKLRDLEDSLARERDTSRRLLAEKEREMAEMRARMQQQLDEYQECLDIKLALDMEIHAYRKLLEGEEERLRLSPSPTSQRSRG
Briefly: pull-down; His-tagged lamin 250-400 fragments on Ni-NTA resin with the lamin 1-125 fragment; reducing condition; SDS-PAGE. The note with it: both partners purified.

The target of test [10] is T9, His-tagged lamin A/C 250-400 fragment, wild type (human, UniProt P02545 250-400).
T9 construct: lamin A/C, human, residues 250-400 (C-terminal part of coil 2); pProEx-HTa vector: a TEV protease cleavage site stands between the His-tag and the lamin residues; also called His-lamin 250-400 WT; source: E. coli BL21 (DE3), purified (cobalt-Talon, HiTrap Q, SEC); not shown: His-tag, N-terminal, kept
T9 sequence (looked up): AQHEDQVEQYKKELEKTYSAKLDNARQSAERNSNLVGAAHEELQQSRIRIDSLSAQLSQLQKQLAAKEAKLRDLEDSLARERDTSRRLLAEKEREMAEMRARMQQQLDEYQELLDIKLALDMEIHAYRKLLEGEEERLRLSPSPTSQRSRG
Briefly: pull-down; His-tagged lamin 250-400 fragments on Ni-NTA resin with the lamin 1-125 fragment; nonreducing (oxidized) condition; SDS-PAGE. The note with it: both partners purified.

Regarding B1, in test [1], the binding result is “binds”. The results for the “fold decrease of the interaction (KD) against wild type” value in [2] and in test [5] were about 2 fold and 5 fold, respectively. The “fold increase of the interaction (KD) against wild type” value in test [3] was about 56 fold; in test [4] it was about 2 fold.

B2: His-tagged lamin A/C 1-125 fragment, wild type (domain or fragment, human, UniProt P02545 1-125, looked up)
chain: METPSQRRATRSGAQASSTPLSPTRITRLQEKEDLQELNDRLAVYIDRVRSLETENAGLRLRITESEEVVSREVSGIKAAYEAELGDARKTLDSVAKERARLQLELSKVREEFKELKARNTKKEG
notes: pProEx-HTa vector: a TEV protease cleavage site stands between the His-tag and the lamin residues; also called coil 1a fragment; source: E. coli BL21 (DE3), purified (cobalt-Talon, HiTrap Q, SEC); not shown: His-tag, N-terminal, kept
In the case of B2, the binding result in test [6], in test [7] and in [8] was “binds” in each case.

B3: lamin A/C 1-125 fragment, wild type, prey of Figure 6b (domain or fragment, human, UniProt P02545 1-125, looked up)
chain: METPSQRRATRSGAQASSTPLSPTRITRLQEKEDLQELNDRLAVYIDRVRSLETENAGLRLRITESEEVVSREVSGIKAAYEAELGDARKTLDSVAKERARLQLELSKVREEFKELKARNTKKEG
notes: the pull-down methods say that preys were His-tag cleaved lamin proteins; the purification paragraph names TEV cleavage only for lamin 250-400; also called coil 1a fragment; source: E. coli BL21 (DE3), purified (cobalt-Talon, HiTrap Q, SEC); not shown: His-tag, N-terminal, cleaved
In the case of B3, the binding result in [9] and in test [10] was “binds” each time.
